Data as given in paper PMC5385526 (Scientific Reports, 2017).

B1: human aminopeptidase N (hAPN) ectodomain, soluble (domain or fragment, UniProt P15144 36-967, looked up)
chain: EKNKNANSSPVASTTPSASATTNPASATTLDQSKAWNRYRLPNTLKPDSYRVTLRPYLTPNDRGLYVFKGSSTVRFTCKEATDVIIIHSKKLNYTLSQGHRVVLRGVGGSQPPDIDKTELVEPTEYLVVHLKGSLVKDSQYEMDSEFEGELADDLAGFYRSEYMEGNVRKVVATTQMQAADARKSFPCFDEPAMKAEFNITLIHPKDLTALSNMLPKGPSTPLPEDPNWNVTEFHTTPKMSTYLLAFIVSEFDYVEKQASNGVLIRIWARPSAIAAGHGDYALNVTGPILNFFAGHYDTPYPLPKSDQIGLPDFNAGAMENWGLVTYRENSLLFDPLSSSSSNKERVVTVIAHELAHQWFGNLVTIEWWNDLWLNEGFASYVEYLGADYAEPTWNLKDLMVLNDVYRVMAVDALASSHPLSTPASEINTPAQISELFDAISYSKGASVLRMLSSFLSEDVFKQGLASYLHTFAYQNTIYLNLWDHLQEAVNNRSIQLPTTVRDIMNRWTLQMGFPVITVDTSTGTLSQEHFLLDPDSNVTRPSEFNYVWIVPITSIRDGRQQQDYWLIDVRAQNDLFSTSGNEWVLLNLNVTGYYRVNYDEENWRKIQTQLQRDHSAIPVINRAQIINDAFNLASAHKVPVTLALNNTLFLIEERQYMPWEAALSSLSYFKLMFDRSEVYGPMKNYLKKQVTPLFIHFRNNTNNWREIPENLMDQYSEVNAISTACSNGVPECEEMVSGLFKQWMENPNNNPIHPNLRSTVYCNAIAQGGEEEWDFAWEQFRNATLVNEADKLRAALACSKELWILNRYLSYTLNPDLIRKQDATSTIISITNNVIGQGLVWDFVQSNWKKLFNDYGGGSFSFSNLIQAVTRRFSTEYELQQLEQFKKDNEETGFGSGTRALEQALEKTKANIKWVKENKEVVLQWFTENSK

Columns and labels:
[1] = target: porcine aminopeptidase N (pAPN) ectodomain, soluble (pig) (UniProt P15145); assay: crystal structure; HA-tagged APN ectodomains; pAPNeh: 5% PEG-1000, 10% PEG-8000 (pH ~6); native pAPN: 20% PEG-3350, 100 mM sodium acetate pH 5.6; hAPN: 20% PEG-6000, 50 mM imidazole-HCl pH 8.0; dimer in the crystals
[2] = target: seleno-Met, endoglycosidase H-treated porcine APN ectodomain (pig) (UniProt P15145); assay: as above
[3] = target: TGEV RBD-Fc fusion protein (bivalent RBD-Fc variant); assay: flow cytometry on cells; conditions: 293T cell surface, normalized to cell surface expression, read off a plot
[4] = target: the molecule itself; assay: crystal structure; HA-tagged APN ectodomains; pAPNeh: 5% PEG-1000, 10% PEG-8000 (pH ~6); native pAPN: 20% PEG-3350, 100 mM sodium acetate pH 5.6; hAPN: 20% PEG-6000, 50 mM imidazole-HCl pH 8.0; dimer in the crystals
[5] = + DTT (5 mM; 30 min, 37 °C) before assay, parent: est. 110

Row | Molecule | percent of parent [3, 5] [%] | percent of parent ([3]; - DTT, parent: est. 100) [%] | further results
1 | porcine aminopeptidase N (pAPN) ectodomain, soluble (from UniProt P15145 36-963) (domain or fragment) | – | – | stoichiometry N [1]: 2
2 | seleno-Met, endoglycosidase H-treated porcine APN ectodomain (from UniProt P15145 36-963) (domain or fragment) | – | – | stoichiometry N [2]: 2
3 | wild type porcine APN on the surface of transiently transfected 293T cells (from UniProt P15145) S464C; S892C | 120 | 45 | –
4 | wild type porcine APN on the surface of transiently transfected 293T cells (from UniProt P15145) S464C; S892C; S929C | 76 | 37 | –
5 | wild type porcine APN on the surface of transiently transfected 293T cells (from UniProt P15145) S464C; S929C | 110 | 19 | –
6 | B1 | – | – | stoichiometry N [4]: 2
